Test results: the Human Domainome abundance scans (Beltran et al. 2025)
± gives the uncertainty stated by the source.

B1: Protein S100-G, residues 1 to 79; numbered along this chain, P02633 (parent)
chain: MSAKKSPEELKGIFEKYAAKEGDPNQLSKEELKLLLQTEFPSLLKGPSTLDELFEELDKNGDGEVSFEEFQVLVKKISQ

Variants of: B1
Experiment: abundance fitness (aPCA) (normalised: wild type 0, dead -1); higher = more abundant; growth selection in yeast, the domain comes from the species named
Details: Bos taurus

Variant	abundance fitness
SSAKKSPEELKGIFEKYAAKEGDPNQLSKEELKLLLQTEFPSLLKGPSTLDELFEELDKNGDGEVSFEEFQVLVKKISQ	-0.368 ± 0.097
RSAKKSPEELKGIFEKYAAKEGDPNQLSKEELKLLLQTEFPSLLKGPSTLDELFEELDKNGDGEVSFEEFQVLVKKISQ	-0.631 ± 0.091
HSAKKSPEELKGIFEKYAAKEGDPNQLSKEELKLLLQTEFPSLLKGPSTLDELFEELDKNGDGEVSFEEFQVLVKKISQ	-1.42 ± 0.33
VSAKKSPEELKGIFEKYAAKEGDPNQLSKEELKLLLQTEFPSLLKGPSTLDELFEELDKNGDGEVSFEEFQVLVKKISQ	-0.313 ± 0.078
KSAKKSPEELKGIFEKYAAKEGDPNQLSKEELKLLLQTEFPSLLKGPSTLDELFEELDKNGDGEVSFEEFQVLVKKISQ	-0.245 ± 0.099
ISAKKSPEELKGIFEKYAAKEGDPNQLSKEELKLLLQTEFPSLLKGPSTLDELFEELDKNGDGEVSFEEFQVLVKKISQ	0.027 ± 0.094
DSAKKSPEELKGIFEKYAAKEGDPNQLSKEELKLLLQTEFPSLLKGPSTLDELFEELDKNGDGEVSFEEFQVLVKKISQ	-0.392 ± 0.13
LSAKKSPEELKGIFEKYAAKEGDPNQLSKEELKLLLQTEFPSLLKGPSTLDELFEELDKNGDGEVSFEEFQVLVKKISQ	-0.378 ± 0.085
GSAKKSPEELKGIFEKYAAKEGDPNQLSKEELKLLLQTEFPSLLKGPSTLDELFEELDKNGDGEVSFEEFQVLVKKISQ	-0.267 ± 0.1
PSAKKSPEELKGIFEKYAAKEGDPNQLSKEELKLLLQTEFPSLLKGPSTLDELFEELDKNGDGEVSFEEFQVLVKKISQ	-1.34 ± 0.26
ESAKKSPEELKGIFEKYAAKEGDPNQLSKEELKLLLQTEFPSLLKGPSTLDELFEELDKNGDGEVSFEEFQVLVKKISQ	-0.552 ± 0.1
ASAKKSPEELKGIFEKYAAKEGDPNQLSKEELKLLLQTEFPSLLKGPSTLDELFEELDKNGDGEVSFEEFQVLVKKISQ	-0.572 ± 0.1
FSAKKSPEELKGIFEKYAAKEGDPNQLSKEELKLLLQTEFPSLLKGPSTLDELFEELDKNGDGEVSFEEFQVLVKKISQ	-0.193 ± 0.11
MNAKKSPEELKGIFEKYAAKEGDPNQLSKEELKLLLQTEFPSLLKGPSTLDELFEELDKNGDGEVSFEEFQVLVKKISQ	0.094 ± 0.087
MPAKKSPEELKGIFEKYAAKEGDPNQLSKEELKLLLQTEFPSLLKGPSTLDELFEELDKNGDGEVSFEEFQVLVKKISQ	-0.699 ± 0.08
MIAKKSPEELKGIFEKYAAKEGDPNQLSKEELKLLLQTEFPSLLKGPSTLDELFEELDKNGDGEVSFEEFQVLVKKISQ	0.144 ± 0.088
MGAKKSPEELKGIFEKYAAKEGDPNQLSKEELKLLLQTEFPSLLKGPSTLDELFEELDKNGDGEVSFEEFQVLVKKISQ	0.039 ± 0.086
MKAKKSPEELKGIFEKYAAKEGDPNQLSKEELKLLLQTEFPSLLKGPSTLDELFEELDKNGDGEVSFEEFQVLVKKISQ	0.225 ± 0.1
MTAKKSPEELKGIFEKYAAKEGDPNQLSKEELKLLLQTEFPSLLKGPSTLDELFEELDKNGDGEVSFEEFQVLVKKISQ	0.102 ± 0.076

Variant	abundance fitness
MFAKKSPEELKGIFEKYAAKEGDPNQLSKEELKLLLQTEFPSLLKGPSTLDELFEELDKNGDGEVSFEEFQVLVKKISQ	0.073 ± 0.081
MVAKKSPEELKGIFEKYAAKEGDPNQLSKEELKLLLQTEFPSLLKGPSTLDELFEELDKNGDGEVSFEEFQVLVKKISQ	0.085 ± 0.084
MHAKKSPEELKGIFEKYAAKEGDPNQLSKEELKLLLQTEFPSLLKGPSTLDELFEELDKNGDGEVSFEEFQVLVKKISQ	-0.09 ± 0.094
MMAKKSPEELKGIFEKYAAKEGDPNQLSKEELKLLLQTEFPSLLKGPSTLDELFEELDKNGDGEVSFEEFQVLVKKISQ	0.279 ± 0.12
MWAKKSPEELKGIFEKYAAKEGDPNQLSKEELKLLLQTEFPSLLKGPSTLDELFEELDKNGDGEVSFEEFQVLVKKISQ	-0.118 ± 0.095
MDAKKSPEELKGIFEKYAAKEGDPNQLSKEELKLLLQTEFPSLLKGPSTLDELFEELDKNGDGEVSFEEFQVLVKKISQ	0.116 ± 0.081
MEAKKSPEELKGIFEKYAAKEGDPNQLSKEELKLLLQTEFPSLLKGPSTLDELFEELDKNGDGEVSFEEFQVLVKKISQ	-0.105 ± 0.11
MAAKKSPEELKGIFEKYAAKEGDPNQLSKEELKLLLQTEFPSLLKGPSTLDELFEELDKNGDGEVSFEEFQVLVKKISQ	-0.138 ± 0.073
MQAKKSPEELKGIFEKYAAKEGDPNQLSKEELKLLLQTEFPSLLKGPSTLDELFEELDKNGDGEVSFEEFQVLVKKISQ	0 ± 0.1
MLAKKSPEELKGIFEKYAAKEGDPNQLSKEELKLLLQTEFPSLLKGPSTLDELFEELDKNGDGEVSFEEFQVLVKKISQ	-0.015 ± 0.067
MSGKKSPEELKGIFEKYAAKEGDPNQLSKEELKLLLQTEFPSLLKGPSTLDELFEELDKNGDGEVSFEEFQVLVKKISQ	-0.09 ± 0.076
MSEKKSPEELKGIFEKYAAKEGDPNQLSKEELKLLLQTEFPSLLKGPSTLDELFEELDKNGDGEVSFEEFQVLVKKISQ	-0.095 ± 0.094
MSCKKSPEELKGIFEKYAAKEGDPNQLSKEELKLLLQTEFPSLLKGPSTLDELFEELDKNGDGEVSFEEFQVLVKKISQ	0.061 ± 0.1
MSFKKSPEELKGIFEKYAAKEGDPNQLSKEELKLLLQTEFPSLLKGPSTLDELFEELDKNGDGEVSFEEFQVLVKKISQ	0.103 ± 0.084
MSKKKSPEELKGIFEKYAAKEGDPNQLSKEELKLLLQTEFPSLLKGPSTLDELFEELDKNGDGEVSFEEFQVLVKKISQ	-0.133 ± 0.081
MSIKKSPEELKGIFEKYAAKEGDPNQLSKEELKLLLQTEFPSLLKGPSTLDELFEELDKNGDGEVSFEEFQVLVKKISQ	0.077 ± 0.081
MSDKKSPEELKGIFEKYAAKEGDPNQLSKEELKLLLQTEFPSLLKGPSTLDELFEELDKNGDGEVSFEEFQVLVKKISQ	0.066 ± 0.09
MSHKKSPEELKGIFEKYAAKEGDPNQLSKEELKLLLQTEFPSLLKGPSTLDELFEELDKNGDGEVSFEEFQVLVKKISQ	-0.049 ± 0.082
